# Biological target: SARS-CoV-2 N-NTD (WT) (SARS-CoV-2, UniProt P0DTC9 41-174)
# Assay: SPR
binder,measurement,value
AAGUUCGUUU (ssRNA) [viral RNA derived intergenic sequence],Kd,140 µM
